According to US12258605B2, “Alkane oxidation by modified hydroxylases” (The California Institute of Technology, priority 2005, dated 2025):
Numbering of substitutions follows the chain as printed. Names may count otherwise. Read-outs that look alike come from different tables or passages of the source.

Columns and labels:
[1] = myristate; cited from earlier work
[2] = palmitate; cited from earlier work
[3] = laurate; cited from earlier work
[4] = Absorption spectra, spin shift upon incubation with substrate; format: binding; details: 3 uM purified P450; incubation with ethane or octane
Experimental: The absorption spectra for 53-5H and 35-E11 were taken using a 3 uM solution of purified P450 in a quartz cuvette. Upon incubation with ethane, no shift in equilibrium from low- (Amax at 418 nm) to high-spin (Amax at 390 nm) configuration of the ferric P450 was observed.

[5] = T50 determination (heat inactivation of CO-binding); format: physicochemical
Experimental: T50 determination. A solution of purified enzyme (1-3 μM) in 100 mM KPi pH 8.0 buffer was transferred on a PCR 96-well plate and incubated for 10 minutes at different temperatures (from 37° C. to 60° C.) in a PCR thermocycler. The plate was then cooled on ice, centrifuged at 1500 g for 10 min. 160 μL of the protein solution was then transferred on a 96-well microtiter plate with 40 μL of sodium hydrosulfite 0.1 M in 1 M KPi pH 8.0. A protein sample incubated at room temperature and one incubated on ice were included in the series. Concentration of folded protein was then determined by measuring CO-binding difference spectra using absorption at 450 and 490 nm and extinction coefficient ε450-490=91,000 M^−1 cm^−1. CO-binding signals were normalized to protein concentration of the sample incubated at 4° C. T50 values were calculated as midpoint inactivation temperatures from nonlinear fitting to the heat-inactivation curves. Experiments were carried out in triplicate.
As a first step, we aimed at increasing the thermostability of 35E11 heme domain in order to obtain a more ‘evolvable’ parent. […] To regain stability and allow further evolution, stabilizing mutations, derived from a thermostable peroxygenase, was tested in single and in combination (Table 16). The effect on enzyme's thermostability of each single mutation or combination thereof on thermostability was evaluated by monitoring temperature-dependent inactivation of the enzyme's CO-binding (FIG. 36C). Among 35E11 derivatives, ETS8 was selected as the best candidate for further evolution experiments, in that its higher thermostability (ΔT50=+5.1° C.) was accompanied by only a 20% decrease in propane activity on propane. […]
T50 values determined from heat-inactivation curves of heme-dependent CO-binding spectral shift show how mutations accumulated during laboratory evolution affected enzyme stability (FIG. 37E) and enable an estimation per-mutation stability penalties for each directed evolution round (FIG. 37F). […]

[6] = NADPH oxidation rates and coupling for propane hydroxylation (Example 4); format: biochemical; details: propanol formation rate/NADPH oxidation rate
Experimental: Determination of NADPH oxidation rates. Initial rates of NADPH oxidation were measured using propane-saturated 100 mM KPi pH 8.0 buffer, purified enzyme at 50-200 nM, and a saturating concentration of NADPH (200 μM). The absorbance decrease at 340 nm was monitored at 25° C. in a BioSpec-1601 UV/VIS spectrophotometer (Shimadzu, Columbia, MD) for 1 min. Rates were calculated over the first 20 seconds using NADPH extinction coefficient ε340=6210 M^−1 cm^−1. Rates were determined in triplicate. Coupling values were calculated from the ratio of propanol formation rate to NADPH oxidation rate in the presence of propane.

B1: Wild-type BM-3: wild-type cytochrome P450 BM-3 from Bacillus megaterium, SEQ ID NO:1 (protein, listed as Bacillus megaterium)
chain: TIKEMPQPKTFGELKNLPLLNTDKPVQALMKIADELGEIFKFEAPGRVTRYLSSQRLIKEACDESRFDKNLSQALKFVRDFAGDGLFTSWTHEKNWKKAHNILLPSFSQQAMKGYHAMMVDIAVQLVQKWERLNADEHIEVPEDMTRLTLDTIGLCGFNYRFNSFYRDQPHPFITSMVRALDEAMNKLQRANPDDPAYDENKRQFQEDIKVMNDLVDKIIADRKASGEQSDDLLTHMLNGKDPETGEPLDDENIRYQIITFLIAGHETTSGLLSFALYFLVKNPHVLQKAAEEAARVLVDPVPSYKQVKQLKYVGMVLNEALRLWPTAPAFSLYAKEDTVLGGEYPLEKGDELMVLIPQLHRDKTIWGDDVEEFRPERFENPSAIPQHAFKPFGNGQRACIGQQFALHEATLVLGMMLKHFDFEDHTNYELDIKETLTLKPEGFVVKAKSKKIPLGGIPSPSTEQSAKKVRKKAENAHNTPLLVLYGSNMGTAEGTARDLADIAMSKGFAPQVATLDSHAGNLPREGAVLIVTASYNGHPPDNAKQFVDWLDQASADEVKGVRYSVFGCGDKNWATTYQKVPAFIDETLAAKGAENIADRGEADASDDFEGTYEEWREHMWSDVAAYFNLDIENSEDNKSTLSLQFVDSAADMPLAKMHGAFSTNVVASKELQQPGSARSTRHLEIELPKEASYQEGDHLGVIPRNYEGIVNRVTARFGLDASQQIRLEAEEEKLAHLPLAKTVSVEELLQYVELQDPVTRTQLRAMAAKTVCPPHKVELEALLEKQAYKEQVLAKRLTMLELLEKYPACEMKFSEFIALLPSIRPRYYSISSSPRVDEKQASITVSVVSGEAWSGYGEYKGIASNYLAELQEGDTITCFISTPQSEFTLPKDPETPLIMVGPGTGVAPFRGFVQARKQLKEQGQSLGEAHLYFGCRSPHEDYLYQEELENAQSEGIITLHTAFSRMPNQPKTYVQHVMEQDGKKLIELLDQGAHFYICGDGSQMAPAVEATLMKSYADVHQVSEADARLWLQQLEEKGRYAKDVWAG
Coupling efficiency [1]: 88%
Coupling efficiency [2]: 93%
catalytic efficiency [2]: 6e+07 M⁻¹ s⁻¹
Km [3]: 210 µM
catalytic efficiency [3]: 190000 M⁻¹ s⁻¹

B2: 35-E11: P450 BM-3 variant, SEQ ID NO:7: 53-5H substitutions plus E464G and I710T (protein)
chain: TIKEMPQPKTFGELKNLPLLNTDKPVQALMKIADELGEIFKFEAPGCVTRYLSSQRLIKEACDESRFDKNLSQALKFFRDFSGDGLFTSWTHEINWKKAHNILLPSFSQQAMKGYHAMMVDIAVQLVQKWERLNADEHIEVSEDMTRLTLDTIGLCGFNYRFNSFYRDQPHPFIISMVRALDEVMNKLQRANPDDPAYDENKRQCQEDIKVMNDLVDKIIADRKARGEQSDDLLTQMLNGKDPETGEPLDDGNISYQIITFLIAGHETTSGLLSFALYFLVKNPHVLQKVVEEAARVLVDPVPSYKQVKQLKYVGMVLNEALRLWPTFPAFSLYAKEDTVLGGEYPLEKGDEVMVLIPQLHRDKTIWGDDVEEFRPERFENPSAIPQHAFKPFGNGQRACIGQQFALHEATLVLGMMLKHFDFEDHTNYELDIKETLTLKPEGFVVKAKSKKIPLGGIPSPSTGQSAKKVRKKAENAHNTPLLVLYGSNMGTAEGTARDLADIAMSKGFAPQVATLDSHAGNLPREGAVLIVTASYNGHPPDNAKQFVDWLDQASADEVKGVRYSVFGCGDKNWATTYQKVPAFIDETLAAKGAENIADRGEADASDDFEGTYEEWREHMWSDVAAYFNLDIENSEDNKSTLSLQFVDSAADMPLAKMHGAFSTNVVASKELQQPGSARSTRHLEIELPKEASYQEGDHLGVIPRNYEGTVNRVTARFGLDASQQIRLEAEEEKLAHLPLAKTVSVEELLQYVELQDPVTRTQLRAMAAKTVCPPHKVELEALLEKQAYKEQVLAKRLTMLELLEKYPACEMKFSEFIALLPSIRPRYYSISSSPRVDEKQASITVSVVSGEAWSGYGEYKGIASNYLAELQEGDTITCFISTPQSEFTLPKDPETPLIMVGPGTGVAPFRGFVQARKQLKEQGQSLGEAHLYFGCRSPHEDYLYQEELENAQSEGIITLHTAFSRMPNQPKTYVQHVMEQDGKKLIELLDQGAHFYICGDGSQMAPAVEATLMKSYADVHQVSEADARLWLQQLEEKGRYAKDVWAG
modifications: mutant P450 35-E11 protein sequence
shift from low- to high-spin ferric P450 [4]: behaved identically
T50 ([5]; 10 minutes incubation, midpoint inactivation temperature of CO-binding): 43.4 ± 0.6 °C
ΔT50 ([5]; relative to 35E11): 0 °C
ΔT50 ([5]; stability loss from wild-type to 35E11): −11.6 °C

B3: P450PMO: P450 BM-3 variant, SEQ ID NO:125; 7-7 plus G443A and D698G; propane monooxygenase (protein)
chain: B2 chain with L52I, A74E, S82G, L188P, I366V, G443A, D698G
modifications: Mutant P450PMO protein sequence
notes: 7-7 plus G443A and D698G; propane monooxygenase
coupling efficiency for propane hydroxylation [6]: 90%
